Data reported in PMC9674577.

Experiments:
[1] = target: T1, RocC14-126 (Legionella pneumophila Paris, UniProt A0A3A6VMJ3 14-126); assay: EMSA; similar to 1-126; […]; ITC: 25 mM HEPES pH 7.3, 150 mM NaCl, 10% glycerol, 1 mM TCEP, 25 C; conditions: protein: recombinant; tags: GST removed by 3C protease; label: 5' 32P; hairpin, 5-nt 3' tail
[2] = target: RocC1-126 (Legionella pneumophila Paris, UniProt A0A3A6VMJ3 1-126); assay: EMSA; […]; ITC: 25 mM HEPES pH 7.3, 150 mM NaCl, 10% glycerol, 1 mM TCEP, 25 C; conditions: protein: recombinant; tags: GST removed by 3C protease; label: 5' 32P; hairpin, 5-nt 3' tail
[3] = target: RocC24-126 (Legionella pneumophila Paris, UniProt A0A3A6VMJ3 24-126); assay: FP; […]; ITC: 25 mM HEPES pH 7.3, 150 mM NaCl, 10% glycerol, 1 mM TCEP, 25 C; conditions: protein: recombinant; tags: GST removed by 3C protease; label: 5' FAM; hairpin, 5-nt 3' tail
[4] = target: T2, FinO45-186 (Escherichia coli (F plasmid)?, UniProt P29367 45-186); assay: as above; conditions: protein: recombinant; tags: GST removed by 3C protease; label: 5' FAM; hairpin, 5-nt 3' tail
T2 sequence: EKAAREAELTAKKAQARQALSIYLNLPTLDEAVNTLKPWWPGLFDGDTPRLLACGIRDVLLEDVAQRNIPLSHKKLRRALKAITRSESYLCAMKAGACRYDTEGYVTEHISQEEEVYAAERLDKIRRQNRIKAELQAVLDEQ

[5] = target: T1, RocC14-126; assay: ITC; little if any binding; […]; ITC: 25 mM HEPES pH 7.3, 150 mM NaCl, 10% glycerol, 1 mM TCEP, 25 C; conditions: protein: recombinant; tags: GST removed by 3C protease; hairpin, 5-nt 3' tail
[6] = target: T1, RocC14-126; assay: ITC; 1:1; […]; ITC: 25 mM HEPES pH 7.3, 150 mM NaCl, 10% glycerol, 1 mM TCEP, 25 C; conditions: protein: recombinant; tags: GST removed by 3C protease

B1: RocRSL3 (IVT) (structured_RNA)
RNA: GGGUGGGUCAAUUGGCGACACACUGAUUGGCCCUUUCU
Does B1 bind [1]?
Result: binds

Does B1 bind [2]?
Result: binds

B2: FAM-RocRSL3 (5-nt tail) (structured_RNA)
RNA: UGGGUCAAUUGGCGACACACUGAUUGGCCCUUUCU
With B2 as the binder, how does the binding signal [3] read?
The binding signal was ~3 fold weaker than RocC1-126.

Does B2 bind [4]?
Result: binds

B3: RocRP (RocRSL3 3'-phosphate) (structured_RNA)
RNA: UGGGUCAAUUGGCGACACACUGAUUGGCCCUUUCU
modifications: 3'-phosphate
Does B3 bind [5]?
Result: no binding

B4: 10-nt single-stranded RNA (ssRNA)
RNA: GGCCCUUUCU
B4 was tested. Which binding signal [6] did it give?
Its binding signal is ~19 fold weaker than RocR9bp-tet.
